System: Escherichia coli TOP10
Assay: shrunken log2 fold change of peptide-encoding DNA abundance (4.5 h post-induction vs induction); higher = less antimicrobial activity (less host growth inhibition)
Conditions: time post-induction: 4.5 h; library: site-saturation at positions 5, 18, 19, 20
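Note: peptides expressed intracellularly from a pBAD plasmid library in pooled LB shake-flask culture, induced with 0.3% L-arabinose, DNA abundance read by NGS, three biological replicates, DESeq2 with apeglm shrinkage.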

Row | Sequence | shrunken log2 fold change
1 | RRIRIRPPRLPRPRPRPAEPPRP | -0.21
2 | RRIRFRPPRLPRPRPRPTRWPRP | 0.117
3 | RRIRQRPPRLPRPRPRPPTLPRP | -4.2e-05
4 | RRIRTRPPRLPRPRPRPPVGPRP | 1.18
5 | RRIRGRPPRLPRPRPRPVNSPRP | 0.0202
6 | RRIRHRPPRLPRPRPRPRVSPRP | 0.106
7 | RRIRYRPPRLPRPRPRPLAQPRP | -0.17
8 | RRIRERPPRLPRPRPRPVFAPRP | 0.181
9 | RRIRTRPPRLPRPRPRPTLWPRP | 0.475
10 | RRIRPRPPRLPRPRPRPSMSPRP | -0.409
11 | RRIRLRPPRLPRPRPRPMESPRP | -0.0323
12 | RRIRDRPPRLPRPRPRPFRSPRP | -0.0401
13 | RRIRDRPPRLPRPRPRPEIYPRP | 0.0907
14 | RRIRIRPPRLPRPRPRPLVQPRP | -0.884
15 | RRIRDRPPRLPRPRPRPMCDPRP | 0.0645
16 | RRIRYRPPRLPRPRPRPKYMPRP | -0.998
17 | RRIRERPPRLPRPRPRPSMWPRP | -0.0377
18 | RRIRIRPPRLPRPRPRPRIGPRP | -0.0469
19 | RRIRWRPPRLPRPRPRPMKWPRP | 0.0452
20 | RRIRNRPPRLPRPRPRPHHYPRP | -0.619
21 | RRIRQRPPRLPRPRPRPAKVPRP | 0.325
22 | RRIRMRPPRLPRPRPRPVKCPRP | -0.0525
23 | RRIRFRPPRLPRPRPRPDCIPRP | -0.349
24 | RRIRQRPPRLPRPRPRPKKSPRP | -0.197
25 | RRIRDRPPRLPRPRPRPPRAPRP | 1.1

Row | Sequence | shrunken log2 fold change
26 | RRIRMRPPRLPRPRPRPGASPRP | 0.854
27 | RRIRCRPPRLPRPRPRPPADPRP | 0.95
28 | RRIRTRPPRLPRPRPRPIWWPRP | 0.261
29 | RRIRWRPPRLPRPRPRPRDNPRP | 0.0559
30 | RRIRMRPPRLPRPRPRPAPDPRP | 1.15
31 | RRIRVRPPRLPRPRPRPKEHPRP | 0.0755
32 | RRIRGRPPRLPRPRPRPEIWPRP | 1.34
33 | RRIRKRPPRLPRPRPRPFVLPRP | 0.389
34 | RRIRLRPPRLPRPRPRPEVGPRP | -0.0231
35 | RRIRDRPPRLPRPRPRPCVRPRP | -0.111
36 | RRIRARPPRLPRPRPRPMFFPRP | 0.0123
37 | RRIRGRPPRLPRPRPRPAWHPRP | 0.521
38 | RRIRCRPPRLPRPRPRPRYCPRP | -0.654
39 | RRIRLRPPRLPRPRPRPGVKPRP | 0.108
40 | RRIRHRPPRLPRPRPRPRDTPRP | 0.123
41 | RRIRWRPPRLPRPRPRPHWRPRP | 0.329
42 | RRIRQRPPRLPRPRPRPECVPRP | 0.386
43 | RRIRVRPPRLPRPRPRPDRDPRP | 0.0414
44 | RRIRIRPPRLPRPRPRPKWCPRP | -0.317
45 | RRIRTRPPRLPRPRPRPGTMPRP | -0.254
46 | RRIRMRPPRLPRPRPRPQVLPRP | 0.25
47 | RRIRVRPPRLPRPRPRPSLEPRP | 0.163
48 | RRIRRRPPRLPRPRPRPMNRPRP | -0.321
49 | RRIRQRPPRLPRPRPRPGKMPRP | 0.0812
50 | RRIRSRPPRLPRPRPRPEDNPRP | 0.24

Row | Sequence | shrunken log2 fold change
51 | RRIRHRPPRLPRPRPRPSIFPRP | -0.704
52 | RRIRMRPPRLPRPRPRPNDIPRP | -0.0213
53 | RRIRARPPRLPRPRPRPQSTPRP | 0.0836
54 | RRIRIRPPRLPRPRPRPRLNPRP | -0.247
55 | RRIRKRPPRLPRPRPRPVQEPRP | 0.0683
56 | RRIRFRPPRLPRPRPRPLLRPRP | 0.0227
57 | RRIRQRPPRLPRPRPRPWLAPRP | 0.136
58 | RRIRSRPPRLPRPRPRPWDIPRP | -0.211
59 | RRIRMRPPRLPRPRPRPLLLPRP | -0.32
60 | RRIRWRPPRLPRPRPRPILPPRP | -0.0759
61 | RRIRCRPPRLPRPRPRPTKKPRP | -0.000922
62 | RRIRFRPPRLPRPRPRPIEQPRP | 0.0187
63 | RRIRCRPPRLPRPRPRPAIRPRP | -0.0579
64 | RRIRLRPPRLPRPRPRPNRRPRP | 0.0365
65 | RRIRHRPPRLPRPRPRPTTMPRP | -0.261
66 | RRIRSRPPRLPRPRPRPCYDPRP | -0.438
67 | RRIRCRPPRLPRPRPRPQPMPRP | -0.0366
68 | RRIRYRPPRLPRPRPRPMLDPRP | -0.467
69 | RRIRDRPPRLPRPRPRPPWRPRP | 0.499
70 | RRIRWRPPRLPRPRPRPTQDPRP | 0.755
71 | RRIRCRPPRLPRPRPRPWNTPRP | -0.575
72 | RRIRNRPPRLPRPRPRPQHCPRP | -0.065
73 | RRIRARPPRLPRPRPRPMHQPRP | 0.0908
74 | RRIRARPPRLPRPRPRPYNDPRP | -1.28
75 | RRIRNRPPRLPRPRPRPSGNPRP | -0.315

Row | Sequence | shrunken log2 fold change
76 | RRIRVRPPRLPRPRPRPHMVPRP | -0.53
77 | RRIRQRPPRLPRPRPRPTMYPRP | -0.352
78 | RRIRCRPPRLPRPRPRPGIPPRP | -0.126
79 | RRIRSRPPRLPRPRPRPKWDPRP | 0.172
80 | RRIRSRPPRLPRPRPRPQANPRP | -0.0559
81 | RRIRYRPPRLPRPRPRPDMTPRP | -0.149
82 | RRIRQRPPRLPRPRPRPGNPPRP | -0.132
83 | RRIRDRPPRLPRPRPRPQHTPRP | -0.403
84 | RRIRVRPPRLPRPRPRPAAGPRP | 0.154
85 | RRIRCRPPRLPRPRPRPCQMPRP | -0.609
86 | RRIRYRPPRLPRPRPRPLHGPRP | -0.0615
87 | RRIRERPPRLPRPRPRPWHIPRP | -0.169
88 | RRIRVRPPRLPRPRPRPIMLPRP | -0.122
89 | RRIRTRPPRLPRPRPRPWSHPRP | -0.113
90 | RRIRERPPRLPRPRPRPCAVPRP | -0.0406
91 | RRIRYRPPRLPRPRPRPCWQPRP | 0.013
92 | RRIRSRPPRLPRPRPRPAHLPRP | 0.27
93 | RRIRSRPPRLPRPRPRPTHVPRP | -0.117
94 | RRIRCRPPRLPRPRPRPCQPPRP | -0.149
95 | RRIRERPPRLPRPRPRPSEWPRP | -0.0737
96 | RRIRLRPPRLPRPRPRPVITPRP | -0.372
97 | RRIRHRPPRLPRPRPRPRNPPRP | 0.0812
98 | RRIRSRPPRLPRPRPRPNPDPRP | -0.123
99 | RRIRFRPPRLPRPRPRPVSHPRP | -0.266
100 | RRIRIRPPRLPRPRPRPTVWPRP | 0.163

Row | Sequence | shrunken log2 fold change
101 | RRIRDRPPRLPRPRPRPDKDPRP | 0.0428
102 | RRIRPRPPRLPRPRPRPGTRPRP | 0.134
103 | RRIRRRPPRLPRPRPRPEWLPRP | 0.794
104 | RRIRVRPPRLPRPRPRPHADPRP | 0.00219
105 | RRIRIRPPRLPRPRPRPIGHPRP | -0.0672
106 | RRIRMRPPRLPRPRPRPHYQPRP | -0.228
107 | RRIRLRPPRLPRPRPRPMREPRP | 1.25
108 | RRIRTRPPRLPRPRPRPYLKPRP | -0.27
109 | RRIRGRPPRLPRPRPRPQWTPRP | 0.319
110 | RRIRGRPPRLPRPRPRPIMHPRP | 0.341
111 | RRIRGRPPRLPRPRPRPGRLPRP | 0.706
112 | RRIRFRPPRLPRPRPRPVFPPRP | -0.224
113 | RRIRWRPPRLPRPRPRPEFEPRP | 0.0113
114 | RRIRQRPPRLPRPRPRPLSEPRP | 0.0232
115 | RRIRDRPPRLPRPRPRPNYPPRP | 0.0151
116 | RRIRPRPPRLPRPRPRPDMLPRP | -0.147
117 | RRIRYRPPRLPRPRPRPYLIPRP | -0.554
118 | RRIRTRPPRLPRPRPRPTHFPRP | 0.301
119 | RRIRARPPRLPRPRPRPWMWPRP | 0.213
120 | RRIRWRPPRLPRPRPRPAFPPRP | 0.446
121 | RRIRIRPPRLPRPRPRPWGGPRP | 0.297
122 | RRIRHRPPRLPRPRPRPECCPRP | 0.203
123 | RRIRERPPRLPRPRPRPFAMPRP | -0.207
124 | RRIRRRPPRLPRPRPRPVGPPRP | -0.0193
125 | RRIRLRPPRLPRPRPRPQKEPRP | 0.0466

Row | Sequence | shrunken log2 fold change
126 | RRIRLRPPRLPRPRPRPGRVPRP | 0.242
127 | RRIRGRPPRLPRPRPRPDFCPRP | 2.03
128 | RRIRVRPPRLPRPRPRPSHHPRP | -0.448
129 | RRIRCRPPRLPRPRPRPVLPPRP | 2
130 | RRIRIRPPRLPRPRPRPWENPRP | -0.00674
131 | RRIRTRPPRLPRPRPRPWYYPRP | -0.117
132 | RRIRVRPPRLPRPRPRPHEYPRP | -0.419
133 | RRIRMRPPRLPRPRPRPPRVPRP | 1.23
134 | RRIRDRPPRLPRPRPRPPNCPRP | -0.0514
135 | RRIRLRPPRLPRPRPRPHHVPRP | -0.272
136 | RRIRSRPPRLPRPRPRPREVPRP | -0.0353
137 | RRIRVRPPRLPRPRPRPLMTPRP | -0.24
138 | RRIRNRPPRLPRPRPRPFRHPRP | -0.727
139 | RRIRARPPRLPRPRPRPPCTPRP | 0.164
140 | RRIRPRPPRLPRPRPRPSVGPRP | -0.295
141 | RRIRNRPPRLPRPRPRPFAGPRP | 0.0411
142 | RRIRMRPPRLPRPRPRPLTVPRP | 0.169
143 | RRIRHRPPRLPRPRPRPNPSPRP | -0.0145
144 | RRIRERPPRLPRPRPRPNWMPRP | -0.24
145 | RRIRHRPPRLPRPRPRPTNSPRP | -0.258
146 | RRIRNRPPRLPRPRPRPDITPRP | -0.0553
147 | RRIRVRPPRLPRPRPRPQWEPRP | 0.0101
148 | RRIRRRPPRLPRPRPRPVHNPRP | 0.0641
149 | RRIRLRPPRLPRPRPRPFPRPRP | -0.163
150 | RRIRSRPPRLPRPRPRPILHPRP | -0.159
